Each binder was assayed against human complement protein C3 (human) (UniProt P01024) (assay: cell-based or functional assay).
human complement protein C3 (human), sequence (P01024 23-667, chain 1 of 2): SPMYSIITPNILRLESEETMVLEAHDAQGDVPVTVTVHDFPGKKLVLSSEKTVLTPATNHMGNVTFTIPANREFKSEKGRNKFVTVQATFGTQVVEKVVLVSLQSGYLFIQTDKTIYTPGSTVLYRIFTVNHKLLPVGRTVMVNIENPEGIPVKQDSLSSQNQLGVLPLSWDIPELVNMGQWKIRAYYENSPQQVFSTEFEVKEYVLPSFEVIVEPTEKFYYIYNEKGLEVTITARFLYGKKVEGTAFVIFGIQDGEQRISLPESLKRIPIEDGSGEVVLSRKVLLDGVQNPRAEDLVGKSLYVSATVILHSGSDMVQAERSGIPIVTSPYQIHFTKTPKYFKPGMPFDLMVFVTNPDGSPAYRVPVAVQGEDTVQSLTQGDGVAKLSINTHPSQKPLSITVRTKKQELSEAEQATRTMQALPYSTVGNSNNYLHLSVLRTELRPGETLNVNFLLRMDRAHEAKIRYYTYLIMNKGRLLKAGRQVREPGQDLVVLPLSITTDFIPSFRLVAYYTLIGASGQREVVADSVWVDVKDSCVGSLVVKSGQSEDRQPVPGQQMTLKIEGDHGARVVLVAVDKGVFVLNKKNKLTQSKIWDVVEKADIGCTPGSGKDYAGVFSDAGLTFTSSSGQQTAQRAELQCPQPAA
human complement protein C3 (human), sequence (P01024 672-1663, chain 2 of 2): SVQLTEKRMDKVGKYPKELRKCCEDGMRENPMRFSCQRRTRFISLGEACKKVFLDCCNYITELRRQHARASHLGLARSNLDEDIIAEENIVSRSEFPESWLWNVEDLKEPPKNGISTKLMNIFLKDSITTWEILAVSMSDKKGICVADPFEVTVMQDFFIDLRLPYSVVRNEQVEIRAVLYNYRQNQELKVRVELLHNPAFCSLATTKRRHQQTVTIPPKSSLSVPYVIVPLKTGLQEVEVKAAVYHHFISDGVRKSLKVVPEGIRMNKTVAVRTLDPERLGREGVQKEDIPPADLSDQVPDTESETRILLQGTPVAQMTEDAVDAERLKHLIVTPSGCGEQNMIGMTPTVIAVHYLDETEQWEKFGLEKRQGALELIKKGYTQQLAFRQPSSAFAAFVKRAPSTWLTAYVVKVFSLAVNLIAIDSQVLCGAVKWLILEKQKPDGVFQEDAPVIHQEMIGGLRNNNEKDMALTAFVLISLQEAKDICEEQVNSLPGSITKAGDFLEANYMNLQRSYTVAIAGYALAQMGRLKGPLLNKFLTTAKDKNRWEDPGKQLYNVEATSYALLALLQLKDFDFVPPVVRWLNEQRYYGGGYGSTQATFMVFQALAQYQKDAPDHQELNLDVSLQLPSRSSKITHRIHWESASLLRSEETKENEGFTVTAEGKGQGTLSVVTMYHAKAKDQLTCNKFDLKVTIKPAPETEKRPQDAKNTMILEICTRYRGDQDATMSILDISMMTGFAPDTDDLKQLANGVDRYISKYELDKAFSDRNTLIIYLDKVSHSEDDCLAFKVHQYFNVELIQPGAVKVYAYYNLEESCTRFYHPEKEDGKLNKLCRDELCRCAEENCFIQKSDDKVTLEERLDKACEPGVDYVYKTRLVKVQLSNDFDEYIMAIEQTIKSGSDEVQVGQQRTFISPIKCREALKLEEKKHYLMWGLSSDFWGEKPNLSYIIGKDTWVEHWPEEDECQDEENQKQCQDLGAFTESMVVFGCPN

| Binder | inhibition of classical pathway hemolytic assay (CH50) in human plasma at the highest dose (2000 nM) [%] |
| --- | --- |
| Modified MTSP-1 protease domain Q38H/I41S/D60bT/F60eS/Y60gW/D96K/F97G/ins97aV/T98P/F99L/C122S/G151H/Q175L/Q192D (enzyme) VVGGTDADEGEWPWQVSLHALGHGHSCGASLISPNWLVSAAHCYIDTRGSRWSDPTQWTAFLGLHDQSQRSAPGVQERRLKRIISHPFFNKGVPLDYDIALLELEKPAEYSSMVRPISLPDASHVFPAGKAIWVTGWGHTQYGGTHALILQKGEIRVINQTTCENLLPQLITPRMMCVGFLSGGVDSCDGDSGGPLSSVEADGRIFQAGVVSWGDGCAQRNKPGVYTRLPLFRDWIKENTGV | 94 |

What follows are binders tested against proteinase-activated receptor 2 (PAR-2) (UniProt P55085) (assay: cell-based or functional assay).
proteinase-activated receptor 2 (PAR-2), sequence (P55085 37-397 limits assumed): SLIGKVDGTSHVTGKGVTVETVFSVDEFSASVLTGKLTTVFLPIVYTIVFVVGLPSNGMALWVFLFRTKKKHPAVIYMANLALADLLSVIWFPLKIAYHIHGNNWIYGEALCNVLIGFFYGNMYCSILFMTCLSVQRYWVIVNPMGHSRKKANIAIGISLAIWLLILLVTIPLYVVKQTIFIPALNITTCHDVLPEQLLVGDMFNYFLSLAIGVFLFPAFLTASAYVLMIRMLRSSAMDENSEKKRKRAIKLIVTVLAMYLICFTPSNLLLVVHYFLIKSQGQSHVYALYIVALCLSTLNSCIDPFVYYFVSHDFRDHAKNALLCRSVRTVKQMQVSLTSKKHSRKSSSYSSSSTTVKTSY

| Binder | PAR-2 cell based assay ED50 and SKGR/SL kcat/Km, against wild-type MTSP-1 protease domain with C122S [fold] | PAR-2 Cell Based Assay ED50 [nM] |
| --- | --- | --- |
| Q38H/I41A/D60bV/F60eR/Y60gW/F97T/ins97aE/T98G/F99L/C122S/G151H/Q175L/Q192D (enzyme) VVGGTDADEGEWPWQVSLHALGHGHACGASLISPNWLVSAAHCYIDVRGRRWSDPTQWTAFLGLHDQSQRSAPGVQERRLKRIISHPFFNDTEGLDYDIALLELEKPAEYSSMVRPISLPDASHVFPAGKAIWVTGWGHTQYGGTHALILQKGEIRVINQTTCENLLPQLITPRMMCVGFLSGGVDSCDGDSGGPLSSVEADGRIFQAGVVSWGDGCAQRNKPGVYTRLPLFRDWIKENTGV |  | 430 |
| Modified MTSP-1 protease domain I41R/F97T/Ins97aE/T98G/F99L/C122S/G151N/Q175L/Q192E (enzyme) VVGGTDADEGEWPWQVSLHALGQGHRCGASLISPNWLVSAAHCYIDDRGFRYSDPTQWTAFLGLHDQSQRSAPGVQERRLKRIISHPFFNDTEGLDYDIALLELEKPAEYSSMVRPISLPDASHVFPAGKAIWVTGWGHTQYGGTNALILQKGEIRVINQTTCENLLPQLITPRMMCVGFLSGGVDSCEGDSGGPLSSVEADGRIFQAGVVSWGDGCAQRNKPGVYTRLPLFRDWIKENTGV | > 30 |  |
| Modified MTSP-1 protease domain Q38H/I41S/D60bT/F60eS/Y60gW/D96K/F97D/ins97aA/T98P/F99L/C122S/G151H/Q175L/Q192D (enzyme) VVGGTDADEGEWPWQVSLHALGHGHSCGASLISPNWLVSAAHCYIDTRGSRWSDPTQWTAFLGLHDQSQRSAPGVQERRLKRIISHPFFNKDAPLDYDIALLELEKPAEYSSMVRPISLPDASHVFPAGKAIWVTGWGHTQYGGTHALILQKGEIRVINQTTCENLLPQLITPRMMCVGFLSGGVDSCDGDSGGPLSSVEADGRIFQAGVVSWGDGCAQRNKPGVYTRLPLFRDWIKENTGV | > 30 |  |
| Modified MTSP-1 protease domain Q38H/I41A/D60bV/F60eR/Y60gW/F97T/ins97aE/T98G/F99L/C122S/G151N/Q175L/Q192D (enzyme) VVGGTDADEGEWPWQVSLHALGHGHACGASLISPNWLVSAAHCYIDVRGRRWSDPTQWTAFLGLHDQSQRSAPGVQERRLKRIISHPFFNDTEGLDYDIALLELEKPAEYSSMVRPISLPDASHVFPAGKAIWVTGWGHTQYGGTNALILQKGEIRVINQTTCENLLPQLITPRMMCVGFLSGGVDSCDGDSGGPLSSVEADGRIFQAGVVSWGDGCAQRNKPGVYTRLPLFRDWIKENTGV | > 30 |  |
| I41R/F97T/Ins97aE/T98G/F99L/C122S/G151N/Q175L/Q192E (enzyme) VVGGTDADEGEWPWQVSLHALGQGHRCGASLISPNWLVSAAHCYIDDRGFRYSDPTQWTAFLGLHDQSQRSAPGVQERRLKRIISHPFFNDTEGLDYDIALLELEKPAEYSSMVRPISLPDASHVFPAGKAIWVTGWGHTQYGGTNALILQKGEIRVINQTTCENLLPQLITPRMMCVGFLSGGVDSCEGDSGGPLSSVEADGRIFQAGVVSWGDGCAQRNKPGVYTRLPLFRDWIKENTGV |  | 2600 |
| Q38H/I41A/D60bT/F60eK/Y60gW/F97T/ins97aE/T98G/F99L/C122S/G151H/Q175L/Q192D (enzyme) VVGGTDADEGEWPWQVSLHALGHGHACGASLISPNWLVSAAHCYIDTRGKRWSDPTQWTAFLGLHDQSQRSAPGVQERRLKRIISHPFFNDTEGLDYDIALLELEKPAEYSSMVRPISLPDASHVFPAGKAIWVTGWGHTQYGGTHALILQKGEIRVINQTTCENLLPQLITPRMMCVGFLSGGVDSCDGDSGGPLSSVEADGRIFQAGVVSWGDGCAQRNKPGVYTRLPLFRDWIKENTGV |  | 560 |
| Modified MTSP-1 protease domain Q38H/I41A/D60bV/F60eR/Y60gW/F97T/ins97aE/T98G/F99L/C122S/G151H/Q175L/Q192D (enzyme) VVGGTDADEGEWPWQVSLHALGHGHACGASLISPNWLVSAAHCYIDVRGRRWSDPTQWTAFLGLHDQSQRSAPGVQERRLKRIISHPFFNDTEGLDYDIALLELEKPAEYSSMVRPISLPDASHVFPAGKAIWVTGWGHTQYGGTHALILQKGEIRVINQTTCENLLPQLITPRMMCVGFLSGGVDSCDGDSGGPLSSVEADGRIFQAGVVSWGDGCAQRNKPGVYTRLPLFRDWIKENTGV | > 30 |  |
| Q38H/I41S/D60bT/F60eS/Y60gW/D96K/F97D/ins97aA/T98P/F99L/C122S/G151H/Q175L/Q192D (enzyme) VVGGTDADEGEWPWQVSLHALGHGHSCGASLISPNWLVSAAHCYIDTRGSRWSDPTQWTAFLGLHDQSQRSAPGVQERRLKRIISHPFFNKDAPLDYDIALLELEKPAEYSSMVRPISLPDASHVFPAGKAIWVTGWGHTQYGGTHALILQKGEIRVINQTTCENLLPQLITPRMMCVGFLSGGVDSCDGDSGGPLSSVEADGRIFQAGVVSWGDGCAQRNKPGVYTRLPLFRDWIKENTGV |  | 420 |
| Modified MTSP-1 protease domain Q38H/I41A/D60bV/F60eR/Y60gW/D96I/F97Y/ins97aN/T98G/F99L/C122S/G151N/Q175L/Q192D (enzyme) VVGGTDADEGEWPWQVSLHALGHGHACGASLISPNWLVSAAHCYIDVRGRRWSDPTQWTAFLGLHDQSQRSAPGVQERRLKRIISHPFFNIYNGLDYDIALLELEKPAEYSSMVRPISLPDASHVFPAGKAIWVTGWGHTQYGGTNALILQKGEIRVINQTTCENLLPQLITPRMMCVGFLSGGVDSCDGDSGGPLSSVEADGRIFQAGVVSWGDGCAQRNKPGVYTRLPLFRDWIKENTGV | > 30 |  |
| Q38H/I41S/D60bT/F60eS/Y60gW/F97D/ins97aV/T98P/F99L/C122S/G151H/Q175L/Q192D (enzyme) VVGGTDADEGEWPWQVSLHALGHGHSCGASLISPNWLVSAAHCYIDTRGSRWSDPTQWTAFLGLHDQSQRSAPGVQERRLKRIISHPFFNDDVPLDYDIALLELEKPAEYSSMVRPISLPDASHVFPAGKAIWVTGWGHTQYGGTHALILQKGEIRVINQTTCENLLPQLITPRMMCVGFLSGGVDSCDGDSGGPLSSVEADGRIFQAGVVSWGDGCAQRNKPGVYTRLPLFRDWIKENTGV |  | 640 |
| Modified MTSP-1 protease domain Q38H/I41A/D60bT/F60eK/Y60gW/F97T/ins97aE/T98G/F99L/C122S/G151N/Q175L/Q192D (enzyme) VVGGTDADEGEWPWQVSLHALGHGHACGASLISPNWLVSAAHCYIDTRGKRWSDPTQWTAFLGLHDQSQRSAPGVQERRLKRIISHPFFNDTEGLDYDIALLELEKPAEYSSMVRPISLPDASHVFPAGKAIWVTGWGHTQYGGTNALILQKGEIRVINQTTCENLLPQLITPRMMCVGFLSGGVDSCDGDSGGPLSSVEADGRIFQAGVVSWGDGCAQRNKPGVYTRLPLFRDWIKENTGV | > 30 |  |
| Modified MTSP-1 protease domain Q38H/I41A/D60bV/F60eR/Y60gW/D96P/F97W/ins97aN/T98G/F99L/C122S/G151N/Q175L/Q192E (enzyme) VVGGTDADEGEWPWQVSLHALGHGHACGASLISPNWLVSAAHCYIDVRGRRWSDPTQWTAFLGLHDQSQRSAPGVQERRLKRIISHPFFNPWNGLDYDIALLELEKPAEYSSMVRPISLPDASHVFPAGKAIWVTGWGHTQYGGTNALILQKGEIRVINQTTCENLLPQLITPRMMCVGFLSGGVDSCEGDSGGPLSSVEADGRIFQAGVVSWGDGCAQRNKPGVYTRLPLFRDWIKENTGV | > 30 |  |
| Modified MTSP-1 protease domain Q38H/I41A/D60bV/F60eR/Y60gW/D96I/F97N/T98G/F99L/C122S/G151N/Q175L/Q192D (enzyme) VVGGTDADEGEWPWQVSLHALGHGHACGASLISPNWLVSAAHCYIDVRGRRWSDPTQWTAFLGLHDQSQRSAPGVQERRLKRIISHPFFNINGLDYDIALLELEKPAEYSSMVRPISLPDASHVFPAGKAIWVTGWGHTQYGGTNALILQKGEIRVINQTTCENLLPQLITPRMMCVGFLSGGVDSCDGDSGGPLSSVEADGRIFQAGVVSWGDGCAQRNKPGVYTRLPLFRDWIKENTGV | > 30 |  |

Now from value to binder:

| PAR-2 cell based assay ED50 and SKGR/SL kcat/Km, against wild-type MTSP-1 protease domain with C122S [fold] | PAR-2 Cell Based Assay ED50 [nM] | Binder |
| --- | --- | --- |
| > 30 |  | Modified MTSP-1 protease domain Q38H/I41S/D60bT/F60eS/Y60gW/F97D/ins97aV/T98P/F99L/C122S/G151N/Q175L/Q192D (enzyme) VVGGTDADEGEWPWQVSLHALGHGHSCGASLISPNWLVSAAHCYIDTRGSRWSDPTQWTAFLGLHDQSQRSAPGVQERRLKRIISHPFFNDDVPLDYDIALLELEKPAEYSSMVRPISLPDASHVFPAGKAIWVTGWGHTQYGGTNALILQKGEIRVINQTTCENLLPQLITPRMMCVGFLSGGVDSCDGDSGGPLSSVEADGRIFQAGVVSWGDGCAQRNKPGVYTRLPLFRDWIKENTGV |
| > 30 |  | Modified MTSP-1 protease domain Q38H/I41S/D60bT/F60eS/Y60gW/D96K/F97D/ins97aA/T98P/F99L/C122S/G151N/Q175L/Q192D (enzyme) VVGGTDADEGEWPWQVSLHALGHGHSCGASLISPNWLVSAAHCYIDTRGSRWSDPTQWTAFLGLHDQSQRSAPGVQERRLKRIISHPFFNKDAPLDYDIALLELEKPAEYSSMVRPISLPDASHVFPAGKAIWVTGWGHTQYGGTNALILQKGEIRVINQTTCENLLPQLITPRMMCVGFLSGGVDSCDGDSGGPLSSVEADGRIFQAGVVSWGDGCAQRNKPGVYTRLPLFRDWIKENTGV |
| > 30 |  | Modified MTSP-1 protease domain Q38H/I41S/D60bT/F60eS/Y60gW/D96L/F97D/ins97aG/T98N/F99L/C122S/G151H/Q175L/Q192E (enzyme) VVGGTDADEGEWPWQVSLHALGHGHSCGASLISPNWLVSAAHCYIDTRGSRWSDPTQWTAFLGLHDQSQRSAPGVQERRLKRIISHPFFNLDGNLDYDIALLELEKPAEYSSMVRPISLPDASHVFPAGKAIWVTGWGHTQYGGTHALILQKGEIRVINQTTCENLLPQLITPRMMCVGFLSGGVDSCEGDSGGPLSSVEADGRIFQAGVVSWGDGCAQRNKPGVYTRLPLFRDWIKENTGV |
| > 30 |  | Modified MTSP-1 protease domain Q38H/I41S/D60bT/F60eS/Y60gW/D96Y/F97E/ins97aV/T98G/F99L/C122S/G151H/Q175L/Q192D (enzyme) VVGGTDADEGEWPWQVSLHALGHGHSCGASLISPNWLVSAAHCYIDTRGSRWSDPTQWTAFLGLHDQSQRSAPGVQERRLKRIISHPFFNYEVGLDYDIALLELEKPAEYSSMVRPISLPDASHVFPAGKAIWVTGWGHTQYGGTHALILQKGEIRVINQTTCENLLPQLITPRMMCVGFLSGGVDSCDGDSGGPLSSVEADGRIFQAGVVSWGDGCAQRNKPGVYTRLPLFRDWIKENTGV |
| > 30 |  | Modified MTSP-1 protease domain Q38H/I41S/D60bT/F60eS/Y60gW/D96K/F97G/ins97aV/T98P/F99L/C122S/G151H/Q175L/Q192D (enzyme) VVGGTDADEGEWPWQVSLHALGHGHSCGASLISPNWLVSAAHCYIDTRGSRWSDPTQWTAFLGLHDQSQRSAPGVQERRLKRIISHPFFNKGVPLDYDIALLELEKPAEYSSMVRPISLPDASHVFPAGKAIWVTGWGHTQYGGTHALILQKGEIRVINQTTCENLLPQLITPRMMCVGFLSGGVDSCDGDSGGPLSSVEADGRIFQAGVVSWGDGCAQRNKPGVYTRLPLFRDWIKENTGV |
| > 30 |  | Modified MTSP-1 protease domain Q38H/I41S/D60bT/F60eS/Y60gW/D96V/F97G/ins97aV/T98P/F99L/C122S/G151H/Q175L/Q192D (enzyme) VVGGTDADEGEWPWQVSLHALGHGHSCGASLISPNWLVSAAHCYIDTRGSRWSDPTQWTAFLGLHDQSQRSAPGVQERRLKRIISHPFFNVGVPLDYDIALLELEKPAEYSSMVRPISLPDASHVFPAGKAIWVTGWGHTQYGGTHALILQKGEIRVINQTTCENLLPQLITPRMMCVGFLSGGVDSCDGDSGGPLSSVEADGRIFQAGVVSWGDGCAQRNKPGVYTRLPLFRDWIKENTGV |
|  | 1.4 | Wild-type MTSP-1 protease domain with C122S (enzyme) VVGGTDADEGEWPWQVSLHALGQGHICGASLISPNWLVSAAHCYIDDRGFRYSDPTQWTAFLGLHDQSQRSAPGVQERRLKRIISHPFFNDFTFDYDIALLELEKPAEYSSMVRPISLPDASHVFPAGKAIWVTGWGHTQYGGTGALILQKGEIRVINQTTCENLLPQQITPRMMCVGFLSGGVDSCQGDSGGPLSSVEADGRIFQAGVVSWGDGCAQRNKPGVYTRLPLFRDWIKENTGV |
